Data on three substances can be found in publication PMC5816610.

In series [1] the target is sigma70-RNA polymerase holoenzyme (UniProt P0A7Z4+P0A8V2+P0A8T7+P0A800+P00579). Nature of the series: EMSA. The conditions noted are these: 1x Transcription buffer (composition in cited ref 50), 37 C, 1 pmol DNA, 10 min then 30 min with protein; 5% PAGE in 1xTBE; purified CRP +/-200 uM cAMP ….
Series [2] deals with CRP (purified). Nature of the series: EMSA. The conditions noted are these: 1x Transcription buffer (composition in cited ref 50), 37 C, 1 pmol DNA, 10 min then 30 min with protein; 5% PAGE in 1xTBE; purified CRP +/-200 uM cAMP …. Background: Mobility shift assays separate free from complexed probe on a gel.

For “ATTTAACGGCAGCAAGGCTATTCAGCAGTTCGTTCGGGTCAATACCGTCAGCGATCAGCATTTCGCGATATTGCTGCAGTTTACGAGTGCGCTCTTCAACTTC (double strand) [hns internal region without promoters]”, the binding entry in series [1] is recorded as “no binding”.

As to yihU/V intergenic region, the binding signal (fold vs no cAMP) in series [2] turned out to be 1.3.

With yihV/W intergenic region, in series [2], the binding signal (fold vs no cAMP) was 1.3.
